Test [1] has as its system HPV16 PsV infection of HaCaT cells. Briefly: HPV16 PsV infection of HaCaT cells (GFP, flow cytometry). The test is classed as cell-based, human. The procedure: (§1) HeLa cells (ATCC, Manassas, VA) are human epithelial cells derived from cervical cancer, and were maintained in complete media (IMDM, 10% FBS, 1X PenStrep) at 37°C with 5% CO2 (Lonza, Walkersville, MD). HaCaT cells (Cell Lines Service, Eppelheim, Germany) are in vitro spontaneously transformed human keratinocytes derived from histologically normal skin [75] and were maintained in Defined Keratinocyte Serum-Free Media (KSFM) (Invitrogen, Carlsbad, CA) with manufacturer provided KSFM growth supplement (including insulin, EGF, and FGF) at 37°C with 5% CO2.
Wildtype HPV16 pseudovirions containing GFP reporter were produced by cotransfection of 293TT cells with plasmids encoding codon-optimized HPV16 L1 and L2 and a GFP reporter plasmid (pCIneoGFP) following published procedures. The infectious titer of PsV preparations (in infectious units/mL) was determined by flow cytometric analysis of 293TT cells treated with varying doses of PsV vector stock. Neutralization of PsV were validated in infection assays via pre-incubation with H16.V5 or H16.E70 prior to cellular exposure, and minimal infection rates of less than 1% were observed. To produce pseudovirions with a mutated L2 (108–126) region, site-directed mutagenesis was performed using overlapping mutated primers on the bicistronic packaging HPV16 pseudovirion plasmid p16sheLL as a template. Forward primer 5′-[…]-3′ and reverse primer 5′-[…]-3′ encoding the amino acid substitution of GGDD for LVEE in the L2 capsid region aa 108–111 were used with the QuikChange II XL Site-Directed Mutagenesis Kit (Stratagene, Cedar Creek, TX) according to manufacturer’s instructions. The entire L1 and L2 ORFs of the resulting plasmid were sequenced to confirm mutagenesis of the 108–111 aa L2 region and that no other unexpected mutations were introduced. HPV16 L1–L2(GGDD) PsV containing GFP reporter plasmid were produced as described above for wildtype HPV16 PsV. Confirmation and quantitation of reporter plasmid DNA encapsidation was performed using quantitative real-time PCR following plasmid DNA isolation from pseudovirion preparations by phenol chloroform extraction and ethanol precipitation. L1 content was quantitated by Coomassie Blue staining next to BSA standards following SDS-PAGE. The infectious titer of L2 mutant PsV were determined on 293TT cells as described above for WT PsV.
HaCaT cells seeded at 3×10^4 cells/well or HeLa cells seeded at 2×10^4 cells/well were incubated overnight in 24-well plates at 37°C. The cells were subsequently incubated with wildtype HPV16 PsV containing a pCIneo-GFP vector at an MOI 100 for HaCaT or MOI of 1 for HeLa. The MOIs were chosen for each cell type that achieved 15–25% GFP-positive cells. Infectivity was scored 48 h post infection by enumerating GFP+ cells by flow cytometry. […]

For test [2], the system named is HPV16 PsV infection of HeLa cells. Put plainly: HPV16 PsV infection of HeLa cells (GFP, flow cytometry). The test is classed as cell-based, human. As to conditions: presence of FBS during SLPI incubation and PsV infection; data not shown. The procedure:
as §1
Wildtype HPV16 pseudovirions containing GFP reporter were produced by cotransfection of 293TT cells with plasmids encoding codon-optimized HPV16 L1 and L2 and a GFP reporter plasmid (pCIneoGFP) following published procedures. The infectious titer of PsV preparations (in infectious units/mL) was determined by flow cytometric analysis of 293TT cells treated with varying doses of PsV vector stock. […] Confirmation and quantitation of reporter plasmid DNA encapsidation was performed using quantitative real-time PCR following plasmid DNA isolation from pseudovirion preparations by phenol chloroform extraction and ethanol precipitation. L1 content was quantitated by Coomassie Blue staining next to BSA standards following SDS-PAGE. The infectious titer of L2 mutant PsV were determined on 293TT cells as described above for WT PsV. […]

For the next test, the system named is A2t. Put plainly: ELISA binding to immobilised A2t. Set-up: species or system human. As to conditions: 500 ng A2t coated, 400 ng PsV, H16.V5 or anti-SLPI detection. The procedure:
For assays to determine accessibility of L2_108–120 epitope on capsid surface, 96-well Microlon ELISA plates (USA Scientific, Ocala, FL) were incubated with 500 ng of HPV16 L1 VLP, HPV16 L1L2 VLP or HPV16 PsV in 100 µL PBS overnight at 4°C. The plate was washed with PBST ([…]) and blocked with 200 µL of PBS containing 3% BSA for 2 h at RT. The plate was washed with PBST and incubated with 1∶1000 16L2.4B4 (anti-L2_108–120) or 1∶5000 H16.V5 (anti-L1) in PBST with 1% BSA for 2 h at RT. The plate was washed and incubated with 1∶5000 rabbit-anti-mouse HRP in PBST with 1% BSA for 1 h at RT. The plate was washed, and 100 µL of the HRP substrate (o-phenylenediamine) was added. The absorbance was measured at 490 nm with a Hidex Chameleon plate reader. In control experiments, no VLP or PsV were added, and stained with primary, secondary, or both antibodies and minimal absorbance was seen. For assays to determine in vitro binding capacity of HPV16 capsids to purified A2t protein, 500 ng of purified A2t was coated separately on ELISA plates overnight at 4°C. […] Bound PsV were detected with conformational anti-L1 H16.V5 antibody, followed by anti-mouse IgG HRP antibody conjugate. Bound SLPI was detected with goat anti-SLPI antibody, followed by anti-goat IgG HRP antibody conjugate and addition of substrate.

Test [3] deals with HPV16 PsV infection of HeLa cells. As to conditions: PsV infectivity, FBS present; ref [38]; cited from earlier work. On the procedure: SLPI has shown anti-bacterial and anti-fungal activity aside from its noted anti-protease activity (reviewed in [68]). […] Concentrations in cervical mucosal fluids are commonly reported at 1 µg/ml, but are likely to be more concentrated at the cell surface. In addition, SLPI levels in cervical mucus have been measured midcycle as high as ...

The test system of a further test is HSV. As to conditions: ref [33]; cited from earlier work. An excerpt:
Nonetheless, the link between HSV and H ...

A further test relates to HIV-1. As to conditions: macrophages; ref [34]; cited from earlier work. From the text:
A particular local immune event that has been well studied in the context of HPV infection is mucosal co-infection with herpes simplex virus (HSV). Historically, in the 1960s and 1970s, HSV-2 infection was thought to be a possible causative agent for cervical cancer, [31]. However, the role of HSV-2 in cervical cancer began to be questioned when HSV-2 DNA was not consistently found in cervical cancer tissues. Subsequently, HPV DNA was detected in the overwhelming majority of cervical cancer tissue and determined to be the causative agent. […] To test this hypothesis, the effect of SLPI and antibody inhibition of A2t on HPV16 infection of epithelial cel ...

We go through one molecule from article PMC3425544, “The S100A10 Subunit of the Annexin A2 Heterotetramer Facilitates L2-Mediated Human Papillomavirus Infection” (PLoS ONE, 2012).

“Also recorded” adds a separate entry of the source.

B1: secretory leukocyte protease inhibitor (protein)
chain: SGKSFKAGVCPPKKSAQCLRYKKPECQSDWQCPGKKRCCPDTCGIKCLDPVDTPNPTRRKPGKCPVTYGQCLMLNPPNFCEMDGQCKRDLKCCMGMCGKSCVSPVKA
notes: endogenous annexin A2 ligand
In the case of B1, the “pseudo-infection, 25 µg/mL” value in test [1] (25 µg/mL SLPI vs negative and BSA controls, serum free) is listed as “significant decrease in pseudo-infection”. In test [1] (50 µg/mL SLPI vs negative and BSA controls, serum free), the “pseudo-infection, 50 µg/mL” value is “pseudo-infection further decreased”. Besides, the decrease in pseudo-infection in test [1] (25–50 µg/mL SLPI, 1 h at 4°C prior to PsV, serum free, vs untreated HaCaT cells, 48 h) is recorded as 60–80%. Further, the “SLPI inhibition of HPV16 infection” value in test [1] (HaCaT cells, discussion) is listed as “can inhibit HPV16 infection”. Besides, the “PsV infection, presence of FBS” value in test [2] is “no reduced infection; also recorded: eliminated the blocking effect of SLPI completely”. The “binding to A2t (absorbance at 490 nm)” value in the test on A2t was “significant binding”. Besides, in test [3], the “HPV16 infection of HeLa, SLPI in presence of FBS” value is “no reduction in HPV16 infection”. The “inhibition of HSV infection” value in the test on HSV is on record as “inhibit HSV infection”. Besides, the “inhibition of HIV-1 infection” value in the test with HIV-1 is recorded as “inhibit HIV-1 infection of macrophages; also recorded: inhibits the infection of HIV-1”.
